Measured values published in PMC5656002 (ACS infectious diseases, 2016).
Where two headings read alike, the source gives them in different places.

T1: SHV-1 β-lactamase (UniProt P0AD64 22-286)
T1 sequence (looked up): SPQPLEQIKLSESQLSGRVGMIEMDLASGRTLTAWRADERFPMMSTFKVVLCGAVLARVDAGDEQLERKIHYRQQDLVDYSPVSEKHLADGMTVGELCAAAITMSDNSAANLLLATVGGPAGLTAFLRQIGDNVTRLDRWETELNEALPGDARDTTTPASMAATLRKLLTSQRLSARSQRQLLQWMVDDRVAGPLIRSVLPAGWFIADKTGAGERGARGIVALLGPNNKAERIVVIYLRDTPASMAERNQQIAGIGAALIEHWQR

T2: SME-1 β-lactamase (UniProt P52682 28-294)
T2 sequence: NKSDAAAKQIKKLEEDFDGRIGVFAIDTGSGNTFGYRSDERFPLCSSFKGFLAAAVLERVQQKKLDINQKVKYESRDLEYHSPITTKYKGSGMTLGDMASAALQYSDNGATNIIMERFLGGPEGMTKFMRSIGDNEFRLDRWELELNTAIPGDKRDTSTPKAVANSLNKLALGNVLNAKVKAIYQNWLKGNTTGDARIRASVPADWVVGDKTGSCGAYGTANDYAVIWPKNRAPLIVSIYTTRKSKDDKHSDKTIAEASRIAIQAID


Assays:
[1] = target: SME-1 beta-lactamase (Serratia marcescens) (UniProt P52682); conditions: cited from earlier work
[2] = target: KPC-2 beta-lactamase (Klebsiella pneumoniae) (UniProt Q9F663); conditions: cited from earlier work
[3] = target: CTX-M-14 beta-lactamase (Escherichia coli); conditions: cited from earlier work
[4] = target: T3, KPC-2 β-lactamase (purified) (UniProt Q9F663 30-293); experiment: cell-based or functional assay
[5] = target: T3, KPC-2 β-lactamase (purified); experiment: enzyme inhibition assay
[6] = target: T3, KPC-2 β-lactamase (purified); experiment: enzyme inhibition assay; remark: listed apart in the source
[7] = target: T3, KPC-2 β-lactamase (purified); experiment: cell-based or functional assay; remark: listed apart in the source
[8] = target: T3, KPC-2 β-lactamase (purified); experiment: enzyme inhibition assay; remark: listed apart in the source
[9] = target: T3, KPC-2 β-lactamase (purified); experiment: activity-based association and dissociation kinetics
[10] = target: T4, TEM-1 β-lactamase (purified) (UniProt P62593 24-286); experiment: enzyme inhibition assay
[11] = target: T4, TEM-1 β-lactamase (purified); experiment: enzyme inhibition assay; remark: listed apart in the source
SHV-1 β-lactamase = target: T1, SHV-1 β-lactamase; experiment: enzyme inhibition assay
[12] = target: T4, TEM-1 β-lactamase (purified); experiment: enzyme inhibition assay; remark: listed apart in the source
CTX-M-14 β-lactamase = CTX-M-14 β-lactamase (UniProt Q9L5C7 1-291); experiment: enzyme inhibition assay
SME-1 β-lactamase = target: T2, SME-1 β-lactamase; experiment: enzyme inhibition assay

Molecule	ampicillin MIC of E. coli TP142 (chromosomal blaKPC-2) carrying the BLIP plasmid [4]	Ki [5]	Ki [6]	ampicillin MIC of E. coli TP142 (chromosomal blaKPC-2) carrying the BLIP plasmid [7]	Ki [8]	Kd [9]	koff [9]	kon [9]	Ki [10]	Ki [11]	also measured
BLIP (from UniProt P35804)											Ki [1]: 2.4 nM; Ki [2]: 0.082 nM; Ki [3]: 800 nM
β-lactamase inhibitory protein (BLIP), wild type (natural protein, Streptomyces clavuligerus, UniProt P35804 37-201, looked up) AGVMTGAKFTQIQFGMTRQQVLDIAGAENCETGGSFGDSIHCRGHAAGDYYAYATFGFTSAAADAKVDSKSQEKLLAPSAPTLTLAKFNQVTVGMTRAQVLATVGQGSCTTWSEYYPAYPSTAGVTLSLSCFDVDGYSSTGFYRGSAHLWFTDGVLQGKRQWDLV	1 µg/mL	1.2 ± 0.4 nM	0.2 ± 0.2 nM								
BLIP E73K:K74T (natural protein) AGVMTGAKFTQIQFGMTRQQVLDIAGAENCETGGSFGDSIHCRGHAAGDYYAYATFGFTSAAADAKVDSKSQKTLLAPSAPTLTLAKFNQVTVGMTRAQVLATVGQGSCTTWSEYYPAYPSTAGVTLSLSCFDVDGYSSTGFYRGSAHLWFTDGVLQGKRQWDLV				≤ 3 µg/mL	1.6 ± 0.8 nM	1.3 nM	0.0004 s⁻¹	300000 M⁻¹ s⁻¹			
BLIP K74T (natural protein) AGVMTGAKFTQIQFGMTRQQVLDIAGAENCETGGSFGDSIHCRGHAAGDYYAYATFGFTSAAADAKVDSKSQETLLAPSAPTLTLAKFNQVTVGMTRAQVLATVGQGSCTTWSEYYPAYPSTAGVTLSLSCFDVDGYSSTGFYRGSAHLWFTDGVLQGKRQWDLV	1.5 µg/mL	1.8 ± 2.8 nM	1.5 ± 1 nM						110 ± 23 nM	151 ± 97 nM	
BLIP K74T:R160G (natural protein) AGVMTGAKFTQIQFGMTRQQVLDIAGAENCETGGSFGDSIHCRGHAAGDYYAYATFGFTSAAADAKVDSKSQETLLAPSAPTLTLAKFNQVTVGMTRAQVLATVGQGSCTTWSEYYPAYPSTAGVTLSLSCFDVDGYSSTGFYRGSAHLWFTDGVLQGKGQWDLV				≤ 3 µg/mL	150 ± 57 nM						
BLIP E73K:R160G (natural protein) AGVMTGAKFTQIQFGMTRQQVLDIAGAENCETGGSFGDSIHCRGHAAGDYYAYATFGFTSAAADAKVDSKSQKKLLAPSAPTLTLAKFNQVTVGMTRAQVLATVGQGSCTTWSEYYPAYPSTAGVTLSLSCFDVDGYSSTGFYRGSAHLWFTDGVLQGKGQWDLV				≤ 3 µg/mL	128 ± 30 nM	60 nM	0.03 s⁻¹	500000 M⁻¹ s⁻¹			
BLIP R160G (natural protein) AGVMTGAKFTQIQFGMTRQQVLDIAGAENCETGGSFGDSIHCRGHAAGDYYAYATFGFTSAAADAKVDSKSQEKLLAPSAPTLTLAKFNQVTVGMTRAQVLATVGQGSCTTWSEYYPAYPSTAGVTLSLSCFDVDGYSSTGFYRGSAHLWFTDGVLQGKGQWDLV	0.75 µg/mL	0.9 ± 0.4 nM	0.4 ± 0.3 nM						236 ± 115 nM	236 ± 85 nM	
BLIP W112D (natural protein) AGVMTGAKFTQIQFGMTRQQVLDIAGAENCETGGSFGDSIHCRGHAAGDYYAYATFGFTSAAADAKVDSKSQEKLLAPSAPTLTLAKFNQVTVGMTRAQVLATVGQGSCTTDSEYYPAYPSTAGVTLSLSCFDVDGYSSTGFYRGSAHLWFTDGVLQGKRQWDLV	1 µg/mL	1080 ± 551 nM	587 ± 63 nM						1190 ± 701 nM	1270 ± 212 nM	
BLIP K74T:W112D (natural protein) AGVMTGAKFTQIQFGMTRQQVLDIAGAENCETGGSFGDSIHCRGHAAGDYYAYATFGFTSAAADAKVDSKSQETLLAPSAPTLTLAKFNQVTVGMTRAQVLATVGQGSCTTDSEYYPAYPSTAGVTLSLSCFDVDGYSSTGFYRGSAHLWFTDGVLQGKRQWDLV				≤ 3 µg/mL	0.4 ± 0.2 nM	0.13 nM	3e-05 s⁻¹	200000 M⁻¹ s⁻¹			Ki (SHV-1 β-lactamase): > 10000 nM; Ki [12]: > 10000 nM; Ki (CTX-M-14 β-lactamase): > 10000 nM; Ki (SME-1 β-lactamase): 450 nM
BLIP E73K (natural protein) AGVMTGAKFTQIQFGMTRQQVLDIAGAENCETGGSFGDSIHCRGHAAGDYYAYATFGFTSAAADAKVDSKSQKKLLAPSAPTLTLAKFNQVTVGMTRAQVLATVGQGSCTTWSEYYPAYPSTAGVTLSLSCFDVDGYSSTGFYRGSAHLWFTDGVLQGKRQWDLV	1.5 µg/mL	13.7 ± 6.6 nM	8.9 ± 6.3 nM						835 ± 172 nM	2530 ± 578 nM	
